Series [1] deals with FeCl3-induced platelet-dependent arterial thrombosis. Description: Rat model of FeCl3-induced platelet-dependent arterial thrombosis, intravenous administration. It counts as in vivo. The following applies: dose that prevents complete thrombotic occlusion in 50% of animals. As for the experimental part:
The antithrombotic (prevention of thrombus formation) properties of NAP were evaluated using the established experimental rat model of acute vascular thrombosis.
The rat FeCl3 model is a well characterized model of platelet dependent, arterial thrombosis which has been used to evaluate potential antithrombotic compounds. Kurz, K. D., Main, B. W., and Sandusky, G. E., Thromb. Res., 60: 269-280 (1990). In this model a platelet-rich, occlusive thrombus is formed in a segment of the rat carotid artery treated locally with a fresh solution of FeCl3 absorbed to a piece of filter paper. The FeCl3 is thought to diffuse into the treated segment of artery and cause de-endothelialization of the affected vessel surface. […] The net result is occlusive thrombus formation. The effect of a test compound on the incidence of occlusive thrombus formation following application of FeCl3 is monitored by ultrasonic flowtometry and is used as the primary end point. […]
Following surgery the animals were randomized in either a control (saline) or treatment (recombinant AcaNAP5) group. […] Blood pressure, blood flow, heart rate, and respiration were monitored for 60 minutes. The incidence of occlusion (defined as the attainment of zero blood flow) was recorded as the primary end point.

Series [2] has as its system normal citrated human plasma. Briefly: Prothrombin time (PT) assay. It counts as biochemical. The following applies: for Doubling Concentration (nM) in the PT: concentration that doubled the control clotting time (12.1 seconds) of normal human plasma; for coagulation time of human plasma (Prothrombin Time Assay), in words: P. pastoris culture supernatant / growth media. As for the experimental part:
(§1) The ex vivo anticoagulant effects of NAPs of the present invention in human plasma were evaluated by measuring the prolongation of the activated partial thromboplastin time (aPTT) and prothrombin time (PT) over a broad concentration range of each inhibitor.
(§2) Fresh frozen pooled normal citrated human plasma was obtained from George King Biomedical, Overland Park, Kans. Respective measurements of aPTT and PT were made using the Coag-A-Mate RA4 automated coagulometer (General Diagnostics, Organon Technica, Oklahoma City, Okla.) using the Automated aPTT Platelin® reagent (Organon Technica, Durham, N.C.) and Simplastin® Excel (Organon Technica, Durham, N.C.) respectively, as initiators of clotting according to the manufacturer's instructions.
(§3) The assays were conducted by making a series of dilutions of each tested NAP in rapidly thawed plasma followed by adding 200 microliters or 100 microliters of the above referenced reagents to the wells of the assay carousel for the aPTT or PT measurements, respectively. Alternatively, the NAPs were serially diluted into HBSA and 10 μl of each dilution were added to 100 μl of normal human plasma in the wells of the Coag-A-Mate assay carousel, followed by addition of reagent.
Concentrations of NAP were plotted against clotting time, and a doubling time concentration was calculated, i.e., a specified concentration of NAP that doubled the control clotting time of either the PT or the aPTT. The control clotting times (absence of NAP) in the PT and APTT were 12.1 seconds and 28.5 seconds, respectively.

The test system of series [3] is normal citrated human plasma. Description: Activated partial thromboplastin time (aPTT) assay. It counts as biochemical. The following applies: concentration that doubled the control clotting time (28.5 seconds) of normal human plasma. On the procedure: as §1, §2, §3
Concentrations of NAP were plotted against clotting time, and a doubling time concentration was calculated, i.e., a specified concentration of NAP that doubled the control clotting time of either the PT or the aPTT.

Series [4] has as its target human rFVIIa/rTF/PLV complex. Briefly: Factor VIIa/Tissue factor amidolytic assay. It counts as biochemical. As for the experimental part:
Lyophilized, purified, recombinant human factor VIIa was obtained from BiosPacific, Inc. (Emeryville, Calif.), and reconstituted in HBS (10 mM HEPES, pH 7.5, 150 mM sodium chloride) prior to use. Purified human Factor X was obtained from Enzyme Research Laboratories, Inc. (South Bend, Ind.) and Factor Xa (free FXa) was activated and prepared from Factor X as described (Bock, P. E., Craig, P. A., Olson, S. T., and Singh, P. Arch. Biochem. Biophys. 273: 375-388 (1989)). Active site-blocked human Factor Xa (EGR-FXa), which had been irreversibly inactivated with L-Glutamyl-L-glycyl-L-arginyl chloromethylketone, was obtained from Haematologic Technologies, Inc. (Essex Junction, Vt.). Recombinant human tissue factor (rTF) was produced by a baculovirus-expression system, and purified to homogeneity by monoclonal antibody affinity chromatography (Corvas International, Inc., San Diego, Calif.).
The purified rTF apoprotein was incorporated into phospholipid vesicles (rTF/PLV), consisting of phosphotidyl choline (75%, w/v) and phosphotidyl serine (25%, w/v) in the presence of detergent, as described by Ruf et al. (Ruf, W., Miles, D. J., Rehemtulla, A., and Edgington, T. S. Methods in Enzymology 222: 209-224 (1993)). The phospholipids were purchased from Avanti Polar Lipids, (Alabaster, Ala.). The buffer used for all assays was HBSA, HBS containing 0.1% (w/v) bovine serum albumin. All reagents were obtained from Sigma Chemical Cb. (St. Louis, Mo.), unless otherwise indicated.
rFVIIa/rTF amidolytic activity was determined using the chromogenic substrate S-2288 (H-D-isoleucyl-L-prolyl-L-arginine-p-nitroaniline), obtained from Kabi Pharmacia Hepar, Inc. (Franklin, Ohio). The substrate was reconstituted in deionized water prior to use. rFVIIa and rTF/PLV were combined in a polypropylene test tube, and allowed to form a complex for 10 min in HBSA, containing 3 mM CaCl2. […] Following an incubation of 30 min at ambient temperature, the triplicate reactions were initiated by adding 50 μL of S-2288.
The amidolytic activity of rFVIIa/rTF/PLV was measured as a linear increase in the absorbance at 405 nm over 10 min (velocity), using a Thermo Max® Kinetic Microplate Reader (Molecular Devices, Palo Alto, Calif.), under steady-state conditions, where less than 5% of the substrate was consumed. Ratios of inhibited pre-equilibrium, steady-state velocities (Vi), in the presence of NAP, to the uninhibited velocity in the presence of free fXa alone (Vo) were plotted against the corresponding concentrations of NAP.

For series [5], the system named is acute coronary artery thrombosis. Description: Pig model of acute coronary artery thrombosis. It counts as in vivo. Conditions: for Time of Occulsion: non-occluded vessels assigned 240 minutes. The source says:
The protocol used in these studies is a modification of a thrombosis model which has been reported previously (Lucchesi, B. R., et al., (1994), Brit. J. Pharmacol. 113: 1333-1343).
Animals were anesthetized and instrumented with arterial and venous catheters (left common carotid and external jugular, respectively). A thoracotomy was made in the 4th intercostal space and the heart was exposed. The left anterior descending (LAD) coronary artery was isolated from the overlying connective tissue and was instrumented with a Doppler flow probe and a 17 gauge ligature stenosis. An anodal electrode also was implanted inside the vessel.
Baseline measurements were taken and the NAP or placebo to be tested was administered via the external jugular vein. Five minutes after administration, a direct current (300 μA, DC) was applied to the stimulating electrode to initiate intimal damage to the coronary endothelium and begin thrombus formation. Current continued for a period of 3 hours. Animals were observed until either 1 hour after the cessation of current or the death of the animal, whichever came first.
The incidence of occlusion in the animals receiving placebo was 8/8 (100%). Time to occlusion in placebo treated animals was 66.6±7.5 min. (mean±sem).

The mark [6] stands for this setting: No FXa Addition, read-out: Ki* (pM) Amidolytic Assay, No FXa Addition.

Where two headings read alike, the source gives them in different places. Marks after values point to notes of the source that are not given here. Bounds are passed on as bounds.

As to “rTAP: recombinant Tick Anticoagulant Peptide, 60 amino acid factor Xa inhibitor from Ornithodoros moubata (YNRLCIKPRDWIDECDSNEGGERAYFRNGKGGCDSFWICPEDHTGADYYSSYRDCFNACI; UniProt P17726 1-60, looked up)”, the ED50 (usually the dose at which the effect has come halfway, by size or by number of responders) in series [1] amounted to 0.6 mg/kg.

Regarding `CC1CNc2c(cccc2S(=O)(=O)N[C@@H](CCCNC(=N)N)C(=O)N2CC[C@@H](C)C[C@@H]2C(=O)O)C1` (some centres unmarked) [Argatroban], the ED50 in series [1] (read-out: ED50) was determined as 3.8 mg/kg.

B1: AcaNAP6: NAP of Ancylostoma caninum, SEQ. ID. NO. 6; recombinant, made in Pichia pastoris (protein)
chain: KAYPECGENEWLDVCGTKKPCEAKCSEEEEEDPICRSFSCPGPAACVCEDGFYRDTVIGDCVKEEECDQHEIIHV
For B1, in series [2], the “Doubling Concentration (nM) in the PT” value turned out to be 37 ± 3 nM. Moreover, the “Doubling Concentration (nM) in the aPTT” value in series [3] is listed as 62 ± 0 nM. Moreover, the Ki (usually the equilibrium dissociation constant of an inhibitor or competing ligand from its target) in series [4] (setting [6]) was more than 1500 pM; in series [4] (Plus EGR-FXa (2.5 nM), read-out: Ki* (pM) Amidolytic Assay, Plus EGR-FXa), more than 1500 pM.

B2: AcaNAP42: NAP of Ancylostoma caninum, SEQ. ID. NO. 47; AcaNAP31, 42 and 46 encode identical proteins (protein)
chain: KSLWDQKCGENERLDCGNQKDCERKCDDKRSEEEIMQACLTRQCLPPVCVCEDGFYRNDNDQCVDEEECNMEFITFAP
For the molecule B2, the “coagulation time of human plasma (Prothrombin Time Assay), in words” value in series [2] is recorded as “prolongation of the coagulation time of human plasma”.

B3: Pro-AcaNAP5: AcaNAP5 with four additional N-terminal amino acids, SEQ. ID. NO. 7, made in COS cells (protein)
chain: RTVRKAYPECGENEWLDDCGTQKPCEAKCNEEPPEEEDPICRSRGCLLPPACVCKDGFYRDTVIGDCVREEECDQHEIIHV
Consider B3, for which the “Doubling Concentration (nM) in the PT” value in series [2] is recorded as 21.9 nM. Also, the “Doubling Concentration (nM) in the aPTT” value in series [3] is given as 31.0 nM.

B4: AcaNAPc2P: AcaNAPc2 with an additional proline residue at the C-terminus (protein)
chain: KATMQCGENEKYDSCGSKECDKKCKYDGVEEEDDEEPNVPCLVRVCHQDCVCEEGFYRNKDDKCVSAEDCELDNMDFIYPGTRNP
B4: in series [5] (0.01 mg/kg i.v.), the “Incidence of Occlusion” value is listed as 6/6, the “Total Blood Loss” value worked out at 1.6 ± 0.3 mL and the “Time of Occulsion” value turned out to be 105 ± 6.2 min. In series [5] (0.03 mg/kg i.v.), the “Incidence of Occlusion” value is recorded as 4/6; the “Total Blood Loss” value was 4.9 ± 1.4 mL; the “bleeding, in words” value is recorded as “did not produce significant elevations in bleeding”; the “time to occlusion, in words” value is reported as “significantly prolonged”. The “Time of Occulsion” value in series [5] (0.03 mg/kg i.v.) is recorded as 159 ± 27 min. Further, in series [5] (0.10 mg/kg i.v.), the “Incidence of Occlusion” value is recorded as 2/6†, the “Total Blood Loss” value came out at 17.6 ± 7.9 mL and the “Time of Occulsion” value is recorded as 215 ± 25 min. For the same molecule, the “coagulation time of human plasma (Prothrombin Time Assay), in words” value in series [2] is recorded as “prolongation of the coagulation time of human plasma”. Further, in series [4], the “in vitro activity in inhibitory assays of rFVIIa/rTF activity, compared with AcaNAPc2” value was “substantially the same as AcaNAPc2”.

B5: AceNAP4: NAP of Ancylostoma ceylanicum with two NAP domains, SEQ. ID. NO. 62 (protein)
chain: KPNNVMTNACGLNEYFAECGNMKECEHRCNEEENEERDEERITACLIRVCFRPGACVCKDGFYRNRTGSCVEEDDCEYENMEFITFAPEVPICGSNERYSDCGNDKQCERKCNEDDYEKGDEACRSHVCERPGACVCEDGFYRNKKGSCVESDDCEYDNMDFITFAPETSR
Consider B5, for which the “Doubling Concentration (nM) in the PT” value in series [2] came out at 40 ± 4 nM. In addition, in series [3], the “Doubling Concentration (nM) in the aPTT” value turned out to be 115 ± 12 nM.

B6: AcaNAPc2: NAP of Ancylostoma caninum isolated by phage display, SEQ. ID. NO. 59; fVIIa/TF inhibitor (protein)
chain: KATMQCGENEKYDSCGSKECDKKCKYDGVEEEDDEEPNVPCLVRVCHQDCVCEEGFYRNKDDKCVSAEDCELDNMDFIYPGTRN
Regarding B6, the “Doubling Concentration (nM) in the PT” value in series [2] came to 15 ± 1 nM. Further, in series [4] (setting [6]), the inhibition constant Ki is more than 1500 pM.
